This experiment concerns the target T1, androgen receptor (Homo sapiens, UniProt P10275).
T1 construct: expressed in transfected cells; host or cells: PC-3(AR)2 prostate cancer cells
T1 sequence (P10275 1-920): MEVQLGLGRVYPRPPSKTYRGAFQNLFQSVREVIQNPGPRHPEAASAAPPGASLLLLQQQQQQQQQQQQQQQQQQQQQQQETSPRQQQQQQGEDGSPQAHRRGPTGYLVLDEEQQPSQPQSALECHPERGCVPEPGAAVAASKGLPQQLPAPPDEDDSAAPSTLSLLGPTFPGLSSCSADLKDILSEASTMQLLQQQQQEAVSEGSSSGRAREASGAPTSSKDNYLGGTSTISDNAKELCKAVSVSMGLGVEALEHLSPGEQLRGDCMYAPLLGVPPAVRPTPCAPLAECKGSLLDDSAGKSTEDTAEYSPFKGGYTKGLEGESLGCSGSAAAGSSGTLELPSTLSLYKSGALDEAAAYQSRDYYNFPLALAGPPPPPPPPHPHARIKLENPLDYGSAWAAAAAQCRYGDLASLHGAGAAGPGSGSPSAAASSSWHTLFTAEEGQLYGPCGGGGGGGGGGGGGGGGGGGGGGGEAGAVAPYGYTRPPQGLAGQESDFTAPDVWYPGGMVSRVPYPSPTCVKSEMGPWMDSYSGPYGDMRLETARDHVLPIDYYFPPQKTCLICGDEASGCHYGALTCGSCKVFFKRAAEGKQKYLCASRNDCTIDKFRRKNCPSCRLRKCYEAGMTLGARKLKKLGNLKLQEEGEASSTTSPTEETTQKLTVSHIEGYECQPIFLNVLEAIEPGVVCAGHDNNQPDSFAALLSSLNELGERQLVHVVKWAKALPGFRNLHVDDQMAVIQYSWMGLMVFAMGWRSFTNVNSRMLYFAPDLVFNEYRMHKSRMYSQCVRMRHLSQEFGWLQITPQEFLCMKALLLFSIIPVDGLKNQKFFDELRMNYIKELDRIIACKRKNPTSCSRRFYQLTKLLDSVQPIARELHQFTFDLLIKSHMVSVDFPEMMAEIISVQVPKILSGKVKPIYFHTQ
As to the kind of experiment: DHT-induced AR transactivation in PC-3(AR)2 cells, MMTV-Luc reporter. In kind it is cell-based. How it is done: Prostate cancer cells (stable transfected with androgen receptor) were transiently transfected with PSF-A expression vector together with a MMTV-Luc reporter vector. Cells were treated with either vehicle or 1 nM DHT for at least 24 hours. Luciferase activities were measured and normalized by β-galactosidase acitvity. Data shown in FIG. 10 are the mean of three separate experiments performed in triplicate ±S.E. Note: the empty vector pcDNA3 was added to the DNA mixture to ensure that the amounts of CMV promoter in all the transfection assays are equal.
Prostate cancer cells (stably transfected with androgen receptor) were transiently transfected with PSF-F expression vector together with a MMTV-Luc reporter vector. Cells were treated with either vehicle or 1 nM DHT for at least 24 hours. Luciferase activities were measured and normalized by β-galactosidase acitvity. Data shown in FIG. 11 are the mean of three separate experiments performed in triplicate ±S.E. Note: the empty vector pcDNA3 was added to the DNA mixture to ensure that the amounts of CMV promoter in all the transfection assays are equal.
PC-3(AR)2 cells are PC-3 cells rendered androgen sensitive by stable transfection of a human androgen receptor cDNA. PC-3(AR)2 cells were transiently transfected with a constant AR expression vector together without or with increasing doses of PSF-A vectors. […]

B1: polypyrimidine tract binding protein-associated splicing factor (protein)
chain: MSRDRFRSRGGGGGGFHRRGGGGGRGGLHDFRSPPPGMGLNQNRGPMGPGPGQSGPKPPIPPPPPHQQQQQPPPQQPPPQQPPPHQPPPHPQPHQQQQPPPPPQDSSKPVVAQGPGPAPGVGSAPPASSSAPPATPPTSGAPPGSGPGPTPTPPPAVTSAPPGAPPPTPPSSGVPTTPPQAGGPPPPPAAVPGPGPGPKQGPGPGGPKGGKMPGGPKPGGGPGLSTPGGHPKPPHRGGGEPRGGRQHHPPYHQQHHQGPPPGGPGGRSEEKISDSEGFKANLSLLRRPGEKTYTQRCRLFVGNLPADITEDEFKRLFAKYGEPGEVFINKGKGFGFIKLESRALAEIAKAELDDTPMRGRQLRVRFATHAAALSVRNLSPYVSNELLEEAFSQFGPIERAVVIVDDRGRSTGKGIVEFASKPAARKAFERCSEGVFLLTTTPRPVIVEPLEQLDDEDGLPEKLAQKNPMYQKERETPPRFAQHGTFEYEYSQRWKSLDEMEKQQREQVEKNMKDAKDKLESEMEDAYHEHQANLLRQDLMRRQEELRRMEELHNQEMQKRKEMQLRQEEERRRREEEMMIRQREMEEQMRRQREESYSRMGYMDPRERDMRMGGGGAMNMGDPYGSGGQKFPPLGGGGGIGYEANPGVPPATMSGSMMGSDMRTERFGQGGAGPVGGQGPRGMGPGTPAGYGRGREEYEGPNKKPRF
notes: expressed from transfected His-PSF vector or in vitro translated
Consider B1, for which the “production/secretion of PSA” value is “blocks”. Under “PC-3(AR)2 cells, 1 nM DHT”, the “androgen receptor activation of the MMTV promoter” value is on record as “blocks”.

Source of the values: US20070286806A1, “Methods and Compositions for Modulating a Steroid Receptor” (Mount Sinai Hospital, priority 2004, published 2007).
